# Source: a protein production outcome set (Wang et al. 2014)
# Assay: label from the status in PepcDB records
row,Sequence,protein production
1,MSGQHGHDHSHAVVTQGNAKKLTIALSLTVTFLIVEVVAGFITQSLALLSDAAHMFTDAAALAIALAAIQVAKRPADDKRTFGYQRFEILAALFNASMLFMVAIYILYEAYQRFTHPPEIQSLGMLLVAVIGLIINLISMKILVSSAQDSLNVKGAYLEVLSDALGSVGVILGALVIYFTQWYWVDTLVAVLIGFWVLPRTWILLKQSINILLEGVPEEVDIEKLRDDLLALEGVESIHQLKVWAITSKNVHLTVHLFAPQADRNRLYRTAYEMLSHEHGIAEITLQIEEDECLAHSHTHIEKNHQH,failed
2,MSGREFLQKLLDGERVEWKALGEIIQLEKGRQLNKDLLSSSGRYPAYNGGMSYSGFTDSYNYSENKTIISQGGASAGFVNFVTTKFYANAHCYVVLPDTEVVDNRYIYHFLKLNEERLTSCQHGAGIPALRASEITSLKIPIPCPDNPKKSLAIQAEIVRILDAFTELTAELTAELTARKKQYAYYRDRLLTFTTPPYGHPSKGGELFSLFGHPSEGGELFTPYGHSVEERELNSPSLKGWQAQPDGVVPVEWKTLGEVGHFIRGSGIQKSDFKASGVGCIHYGQIHTHYGTWTTETKSFIDPEFANRLKKAKPGDLVIATTSEDDDAVAKAVAWIGTEDVAVSTDAYIFRHTANPKYMSYFFQTDMFQEQKKPYITGTKVRRISGDNLAKILIPIPPLAEQERIVAILDQFDALTNSLTEGLPREIELRQKQYAYYRDLLFSFPKASFGGVPEGRDQFPSFGGVPEGRGGLNALEHHHHHH,failed
3,MSGSAADPPSPDRLAGVFSVSSVRRTDGTVQYLGNPLVPPDAVAEQLRPVFRQRGYDVRLEELGPESATGTTVTSNGETTVVDDPGANDSIAPGGAVNTRPGQYALVAEPVGTDTGGVPWLNIGLLLATIASTLYVGASAWYYIPVAKNPLRVFEAWPFMVAMLGVLGIHELGHYAAARYHGVDVTLPYFIPFPSYLGTMGAVINIRGRIPDRTALFDIGVAGPLAGLVATTIVTVIGLSIDPITVPERVANSDTGVIITFNYPLLFQALEALVNALGLGTEVGPGESVHPIVFAGWAGMFFTFLNLLPVGQLDGGHIVRSIVGRRQETIAAAVPGALFALAGYLYFTRDPPPVGFGVWGLWVFWGLFATGLAYAGPARPTVDTALDRRRALLGLFTFLLGIACFTPVPFEISAV,failed
4,MSGSPGIESVPGPELPKIEFLDRFNAKNQKFYAENDARFKDSPLLKKLLENSKLNKEKNEREIQDKYCLRGAEWGVGDCSTTGMTDEEKEKFITMLKKKTGVE,failed
5,MSGVKIAFIRHHDLWIKVDGKEKQLTKGEYITGPKWSYDGEWLAYVKGEKQNTLELYRLKDGKKVTPFHSEVSNYQWSPTENIIAFIFTGTLHTFKVEKKNADFENVSAGVGDYAWYPNGKKFLVSSEAHLLPTGWTGAQLYEVQKDAHMNPHKMKHLYALPNEHDDFLALVASGFQWSPDQKWISFLAVPTASWSADSNTLCLVRADGSRFEKVDQMLLNTQWFKWAPANNILAYIEGSGRVALENKHLKVKELPALQQNTFTPKGYVDWDFTWKNDNVIIVSRAKEAGIETPPEKRPLPSLYEIDSTSDEQHRITKPPHRQGDYHPLFMNKSNQLIWIRSDRKKADVWLAHKDGKHEMKWIENIDVPLEHHHHHH,failed
6,MSHLYDPTTQYYTGEYPKQKQPAPGVQAKMTPVPDCGEKSYVGSGRLKDRKALVTGGDSGIGRAAAIAYAREGADVAINYLPAEEEDAQQVKALIEECGRKAVLLPGDLSDESFARSLVHKAREALGGLDILALVAGKQTAIPEIKDLTSEQFQQTFAVNVFALFWITQEAIPLLPKGASIITTSSIQAYQPSPHLLDYAATKAAILNYSRGLAKQVAEKGIRVNIVAPGPIWTALQISGGQTQDKIPQFGQQTPMKRAGQPAELAPVYVYLASQESSYVTAEVHGVCGGEHLG,not failed
